Assay results as given in article PMC3893233.

Assays:
Assay in all cases: SPR
[1] = biological target: homo-DLE variant (of Table 1, compared with control mAb1)
hemi-YWA variant = biological target: hemi-YWA variant
[2] = biological target: homo-L235V/F243L/R292P/Y300L/P396L (VLPYLL) variant
[3] = biological target: homo-DLE variant (of Table 2, prepared by control mAb2)
afucosyl mAb = biological target: afucosyl mAb

Substance | Kd [1] [nM] | Kd (hemi-YWA variant) [nM] | Fold KD = KD (control mAb2)/KD (Fc variant) [2] [fold] | Fold KD = KD (control mAb2)/KD (Fc variant) [3] [fold] | Fold KD = KD (IgG1)/KD (Fc variant) (afucosyl mAb) [fold]
human FcγRIIIa^F158, extracellular region (from UniProt P08637 17-208) (receptor) | 5.5 | 280 | – | – | –
human FcγRIIIa^V158, extracellular region (receptor) | – | – | 33 | 126 | 45
human FcγRIIb, extracellular region (from UniProt P31994 43-217) (receptor) | – | – | 0.54 | 6.7 | –

Next, values leading:

Kd [1] [nM] | Kd (hemi-YWA variant) [nM] | Fold KD = KD (control mAb2)/KD (Fc variant) [2] [fold] | Fold KD = KD (control mAb2)/KD (Fc variant) [3] [fold] | Fold KD = KD (IgG1)/KD (Fc variant) (afucosyl mAb) [fold] | Substance
– | – | – | 1.4 | 0.85 | human FcγRIIa^H131, extracellular region (from UniProt P12318 34-217) (receptor)
– | – | – | 2.9 | 1.8 | human FcγRIIa^R131, extracellular region (receptor)
– | – | – | 3.4 | – | human FcγRIa, extracellular region (from UniProt P12314 16-292) (receptor)
